Measurements as given in publication PMC2064291.

Target: vitronectin (urea-purified)
Test: solid-phase binding assay

Substance	fold reduction in binding [fold]
soluble uPAR Y92A (from UniProt Q03405 23-305) (domain or fragment)	> 5
soluble uPAR R91A (from UniProt Q03405 23-305) (domain or fragment)	> 5
soluble uPAR R58A (from UniProt Q03405 23-305) (domain or fragment)	> 5
soluble uPAR W32A (from UniProt Q03405 23-305) (domain or fragment)	> 5
soluble uPAR I63A (from UniProt Q03405 23-305) (domain or fragment)	> 5
